According to US20190211071A1 (NATIONAL UNIVERSITY OF SINGAPORE, published 2019):
Positions of bridges follow the written chain, without caps; N, C: chain ends. No end group written: not given here.

T1: rat NPR-A (rat, UniProt P18910 29-1057)
T1 sequence (looked up): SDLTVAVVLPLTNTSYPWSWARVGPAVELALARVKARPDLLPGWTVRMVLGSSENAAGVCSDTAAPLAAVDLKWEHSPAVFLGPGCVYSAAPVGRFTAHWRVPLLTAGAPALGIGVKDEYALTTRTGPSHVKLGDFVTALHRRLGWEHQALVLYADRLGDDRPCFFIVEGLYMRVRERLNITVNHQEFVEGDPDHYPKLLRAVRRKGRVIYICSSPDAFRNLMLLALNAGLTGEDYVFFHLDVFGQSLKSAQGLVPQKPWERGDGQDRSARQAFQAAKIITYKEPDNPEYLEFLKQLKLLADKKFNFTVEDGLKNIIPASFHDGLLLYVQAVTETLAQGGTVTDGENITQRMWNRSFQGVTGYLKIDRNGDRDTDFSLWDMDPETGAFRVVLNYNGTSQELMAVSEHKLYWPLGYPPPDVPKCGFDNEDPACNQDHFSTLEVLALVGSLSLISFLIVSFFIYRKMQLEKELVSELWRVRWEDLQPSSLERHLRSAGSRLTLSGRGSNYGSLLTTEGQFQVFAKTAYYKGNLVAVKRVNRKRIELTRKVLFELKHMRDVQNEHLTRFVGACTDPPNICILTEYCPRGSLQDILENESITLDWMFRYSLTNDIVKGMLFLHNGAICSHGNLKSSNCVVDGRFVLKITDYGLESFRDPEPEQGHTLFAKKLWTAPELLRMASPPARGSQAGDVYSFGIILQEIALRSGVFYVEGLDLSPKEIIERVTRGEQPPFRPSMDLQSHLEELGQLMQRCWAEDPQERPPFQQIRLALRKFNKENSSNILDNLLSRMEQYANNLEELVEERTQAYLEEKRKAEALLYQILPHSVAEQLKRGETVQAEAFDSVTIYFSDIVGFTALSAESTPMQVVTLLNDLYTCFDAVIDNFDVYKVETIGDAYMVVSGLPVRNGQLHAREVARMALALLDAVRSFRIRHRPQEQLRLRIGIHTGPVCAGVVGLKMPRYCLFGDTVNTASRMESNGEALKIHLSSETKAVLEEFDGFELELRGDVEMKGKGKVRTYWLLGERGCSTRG


Assays:
rat NPR-A [1] = target: T1, rat NPR-A; assay: cell-based or functional assay
rat NPR-A [2] = target: T1, rat NPR-A; assay: cell-based or functional assay; remark: listed apart in the source

| Binder | NPR-A activation potency IC50 (rat NPR-A [1]) [nM] | NPR-A activation potency: Ratio compared ANP (rat NPR-A [1]) [ratio] | NPR-A activation potency: Ratio compared wild type NPs (rat NPR-A [1]) [ratio] | Rate of generation of cGMP (pmol cGMP/pmol peptide) (rat NPR-A [1]) | Rate of generation of cGMP: Ratio compared ANP (rat NPR-A [1]) [ratio] | Rate of generation of cGMP: Ratio compared wild type NPs (rat NPR-A [1]) [ratio] | activation kinetics compared to K-Ring (rat NPR-A [2]) [fold] | potency of cGMP response compared to K-Ring (rat NPR-A [2]) [fold] | time to produce similar levels of cGMP (time-chase at EC50 concentration) (rat NPR-A [2]) [min] |
| --- | --- | --- | --- | --- | --- | --- | --- | --- | --- |
| GLLISCFDGRIDRISHTSDIGCRH (disulfide 6-22) [^DGDK-Ring] | 866 | 50.1 | 3.6 | 0.005 | 1590 | 4.6 |  |  |  |
| SLRRSSCFDRRMDRIGAQSDLGCNSFRY (disulfide 7-23 (inferred)) [^DRDANP] | 45.2 | 2.6 | 2.6 | 0.38 | 21 | 21 |  |  |  |
| SLRRSSCFDGRMDRIGAQSDLGCNSFRY (disulfide 7-23 (inferred)) [^DGDANP] | 135 | 7.8 | 7.8 | 0.14 | 56.9 | 56.9 |  |  |  |
| GLLISCFGRRIDRISHTSGIGCRH (disulfide 6-22) [^GRGK-Ring] | 87.7 | 5.1 | -2.8 | 0.19 | 41.9 | 8.3 | 3 | 4 |  |
| GLLISCFDRRIDRISHTSDIGCNSFRY (disulfide 6-22) [K-Ring^NSFRY] | 43.8 | 2.5 | -5.6 | 0.31 | 25.7 | 13.6 |  |  |  |
| GLLISCFDRRIDRISHTSGIGCRH (disulfide 6-22) [^DRGK-Ring] | 694 | 40.1 | 2.8 | 0.007 | 1140 | 3.2 |  |  |  |
| GLLISCFGRRIDRISHTSDIGCRH (disulfide 6-22) [^GRDK-Ring] | 50.7 | 2.9 | -4.8 | 0.113 | 70.5 | 5 |  |  |  |
| GLLISCFDRRIDRISHTSDIGCRH (disulfide 6-22) [K-Ring] | 244 | 14.1 | 1 | 0.0228 | 350 | 1 |  |  | 30 |
